Reference: US20060073087A1, “Method and apparatus for the formation of particles” (priority 1994, published 2006)

Experiment: colorimetric beta-lactamase activity assay with Nitrocefin (method of O'Callaghan)
Assay type: biochemical
Settings: particles formed from aqueous solution with ethanol and supercritical CO2; tested colorimetrically with Nitrocefin
Source text: This illustrates the successful use of the method and apparatus of the invention in preparing particulate protein products in a controlled manner, even where the proteins are insoluble in, or incompatible with, organic solvents.

B1: R-TEM beta-lactamase (protein, UniProt P62593 24-286, looked up)
Beta-lactamase TEM: HPETLVKVKDAEDQLGARVGYIELDLNSGKILESFRPEERFPMMSTFKVLLCGAVLSRVDAGQEQLGRRIHYSQNDLVEYSPVTEKHLTDGMTVRELCSAAITMSDNTAANLLLTTIGGPKELTAFLHNMGDHVTRLDRWEPELNEAIPNDERDTTMPAAMATTLRKLLTGELLTLASRQQLIDWMEADKVAGPLLRSALPAGWFIADKSGAGERGSRGIIAALGPDGKPSRIVVIYTTGSQATMDERNRQIAEIGASLIKHW
notes: water-soluble protein R-TEM beta-lactamase, batch number 1TEM1L88, formed into particles by the method of the invention
enzymatic activity of the particulate product: retained substantial enzymatic activity
